Measured values reported in US20190256582A1 (published 2019).
Like-named read-outs stand apart in the source and are kept apart here.

Columns and labels:
Test in all cases: ELISA
YFV NS1 = molecular target: YFV NS1
ZIKV NS1 [1] = molecular target: ZIKV NS1 (Zika virus (ZIKV))
TBEV NS1 = molecular target: TBEV NS1
JEV NS1 = molecular target: JEV NS1
WNV NS1 = molecular target: WNV NS1
ZIKV NS1 [2] = molecular target: ZIKV NS1 (Zika virus (ZIKV)); remark: listed apart in the source

Binder	EC50 (YFV NS1) [ng/mL]	EC50 (ZIKV NS1 [1]) [ng/mL]	EC50 (TBEV NS1) [ng/mL]	EC50 (JEV NS1) [ng/mL]	EC50 (WNV NS1) [ng/mL]	EC50 (ZIKV NS1 [2]) [ng/mL]
ZKA15 (antibody, V domains shown) VH: QVQLQESGPGLVKPSETLSLTCTVSGGFINSYYWSWIRQPAGKGLEWIGRIYKSGSTNYNPSLKSRVTMSLDTSKYQFSLKLRSVTAADTAVYYCARDPYGDYVKAFDIWGQGTMVTVSS VL: not shown	2780	3	4610	5500	3220	2.76
ZKA35 (antibody, V domains shown) VH: QVQLQESGPGLVKPSQTLSLTCTVSGGSISTGGYYWSWIRQHPGKGLEWIGYIYYSGNTYYNPSLKSRVTISVDTSKKQFSLKLSSVTAADTAVYYCAKGGGRERPFDYWGQGTLVTVSS VL: QSVLTQPPSASGTPGQRVTISCSGSSSNIGRNYVDWYQQLPGTAPKLLIYRNNQRPSGVPERFSGSKSGTSASLAISGLRSEDEADYYCVAWDDSRSGFVVFGGGTKVTVL	–	2	–	–	–	1.74
ZKA25 (antibody, V domains shown) VH: EVQLVESGGGLVRPGGSLRLSCAASGFTFRSHWMSWVRQAPGKGLEWVANIKEDGYEKYYVDSVKGRFTISRDNAKNSLYLQMKSLRAEDTAVYYCARDLRVYSGRGFDPWGQGTLVTVSS VL: not shown	–	2	–	–	–	2.44
